Results reported in patent US20170334988A1 (WALTER AND ELIZA HALL INSTITUTE OF MEDICAL RESEARCH, published 2017).
Ends that are not written are not given here. * marks the point of attachment. Biotin = O=C1N[C@H]2[C@H](CS[C@H]2CCCCC(=O)*)N1

How the values were obtained:
[1] = target: T1, human BakΔC25 protein (residues 1-186 of SwissProt Accession No. Q16611.1) (human, UniProt Q16611 1-186); experiment: SPR, BIAcore 3000
T1 construct: also called humanAC25 Bak protein; hBakAC
T1 sequence: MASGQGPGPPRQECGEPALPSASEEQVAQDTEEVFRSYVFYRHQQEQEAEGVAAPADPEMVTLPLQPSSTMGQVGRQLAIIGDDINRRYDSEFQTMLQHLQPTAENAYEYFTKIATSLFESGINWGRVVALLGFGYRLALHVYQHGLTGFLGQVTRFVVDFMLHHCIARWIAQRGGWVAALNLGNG

[2] = target: T2, Bak loop peptide 46EQEAEGVAAPADPEMVTLPLQPSS69 (human); experiment: SPR, BIAcore 3000
T2 construct: also called Bak peptide (residues E46 to S69 of human Bak)
T2 peptide: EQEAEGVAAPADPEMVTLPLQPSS

human Bak G51C = target: T3, human Bak G51C (human, UniProt Q16611 2-211); experiment: immunoprecipitation from membranes incubated with or without tBid, western blot
T3 construct: whole, on cells; In membrane fractions
T3 sequence (looked up): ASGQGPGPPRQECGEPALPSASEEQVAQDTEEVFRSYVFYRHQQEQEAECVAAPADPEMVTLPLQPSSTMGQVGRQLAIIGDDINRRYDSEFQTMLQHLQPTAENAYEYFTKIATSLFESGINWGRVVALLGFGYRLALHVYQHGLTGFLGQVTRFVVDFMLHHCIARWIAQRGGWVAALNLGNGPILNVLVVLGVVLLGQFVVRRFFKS
Description: FIG. 4: Ability of antibodies to recognize Bak in different conformations. Membrane fractions from cells expressing Bak (as indicated) were incubated (30 min, 30° C.) with (+) or without (−) Bid, solubilized with digitonin, and incubated with the Bak antibodies shown. Bak in immunoprecipitates and whole cell lysate controls was detected by western blot using the 4B5 antibody. Data are representative of at least two independent experiments ND, not done.
Following activation of Bak in membrane fractions, samples were solubilized by incubation with 1% digitonin on ice for at least 30 min. […] After removing beads by repeated washes in Onyx buffer, lysates were incubated with constant agitation for 2 h at 4° C. with 4 ug/ml anti-Bak antibody, followed by incubation for 1 h at 4° C. with additional pre-washed Sepharose G beads. Immune complexes were isolated by centrifugation (13000 rpm, 2 min, 4° C.), washed 4 times with Onyx buffer, resuspended in sample buffer containing 2-mercaptoethanol and analyzed by western blotting.

[3] = target: T2, Bak loop peptide …; experiment: ITC at 25° C., Ab at 5 µM and peptide at 100 µM
Description: (§1) FIG. 19: Isothermal Titration Microcalorimetry binding profile of 26/05-7D10-17-13 with loop peptide (⁴⁶[…]⁶⁹; SEQ ID NO: 21) at 25° C. A) Titration with Ab at 5 μM and peptide at 100 μM.
(§2) ITC experiments were performed using a MicroCal iTC 200 instrument from GE. Injections of 2.43 μl of peptide solution were added from a computer-controlled microsyringe at an interval of 3 min into the sample solution of antibody (cell volume=300 μl) with stirring at 1000 rpm. Titrations were done at pH 7.2 using […] phosphate-buffered saline. The experimental data were fitted to a theoretical titration curve using software supplied by Microcal.

[4] = target: T2, Bak loop peptide …; experiment: ITC at 25° C., Ab at 2.5 µM and peptide at 50 µM
Description: as §1, §2

FRSYVFYR = target: T4, FRSYVFYR; experiment: peptide ELISA, A405
T4 construct: member of m19; also called hBak 8-mer 35-42
T4 peptide: Biotin-SGSGFRSYVFYR

TEEVFRSY = target: T5, TEEVFRSY; experiment: peptide ELISA, A405
T5 construct: member of m19; also called hBak 8-mer 31-38
T5 peptide: Biotin-SGSGTEEVFRSY

EAEGVAAP = target: T6, EAEGVAAP; experiment: peptide ELISA, A405
T6 construct: member of m19; also called hBak 8-mer 48-55
T6 peptide: Biotin-SGSGEAEGVAAP

EEVFRSYV = target: T7, EEVFRSYV; experiment: peptide ELISA, A405
T7 construct: member of m19; also called hBak 8-mer 32-39
T7 peptide: Biotin-SGSGEEVFRSYV

QVAQDTEE = target: T8, QVAQDTEE; experiment: peptide ELISA, A405
T8 construct: member of m19; also called hBak 8-mer 26-33
T8 peptide: Biotin-SGSGQVAQDTEE

EVFRSYVF = target: T9, EVFRSYVF; experiment: peptide ELISA, A405
T9 construct: member of m19; also called hBak 8-mer 33-40
T9 peptide: Biotin-SGSGEVFRSYVF

SYVFYRHQ = target: T10, SYVFYRHQ; experiment: peptide ELISA, A405
T10 construct: member of m19; also called hBak 8-mer 37-44
T10 peptide: Biotin-SGSGSYVFYRHQ

QDTEEVFR = target: T11, QDTEEVFR; experiment: peptide ELISA, A405
T11 construct: member of m19; also called hBak 8-mer 29-36
T11 peptide: Biotin-SGSGQDTEEVFR

RSYVFYRH = target: T12, RSYVFYRH; experiment: peptide ELISA, A405
T12 construct: member of m19; also called hBak 8-mer 36-43
T12 peptide: Biotin-SGSGRSYVFYRH

VFRSYVFY = target: T13, VFRSYVFY; experiment: peptide ELISA, A405
T13 construct: member of m19; also called hBak 8-mer 34-41
T13 peptide: Biotin-SGSGVFRSYVFY

AQDTEEVF = target: T14, AQDTEEVF; experiment: peptide ELISA, A405
T14 construct: member of m19; also called hBak 8-mer 28-35
T14 peptide: Biotin-SGSGAQDTEEVF

EGVAAPAD = target: T15, EGVAAPAD; experiment: peptide ELISA, A405
T15 construct: member of m19; also called hBak 8-mer 50-57
T15 peptide: Biotin-SGSGEGVAAPAD

SEEQVAQD = target: T16, SEEQVAQD; experiment: peptide ELISA, A405
T16 construct: member of m19; also called hBak 8-mer 23-30
T16 peptide: Biotin-SGSGSEEQVAQD

EEQVAQDT = target: T17, EEQVAQDT; experiment: peptide ELISA, A405
T17 construct: member of m19; also called hBak 8-mer 24-31
T17 peptide: Biotin-SGSGEEQVAQDT

VAAPADPE = target: T18, VAAPADPE; experiment: peptide ELISA, A405
T18 construct: member of m19; also called hBak 8-mer 52-59
T18 peptide: Biotin-SGSGVAAPADPE

VAQDTEEV = target: T19, VAQDTEEV; experiment: peptide ELISA, A405
T19 construct: member of m19; also called hBak 8-mer 27-34
T19 peptide: Biotin-SGSGVAQDTEEV

DTEEVFRS = target: T20, DTEEVFRS; experiment: peptide ELISA, A405
T20 construct: member of m19; also called hBak 8-mer 30-37
T20 peptide: Biotin-SGSGDTEEVFRS

AEGVAAPA = target: T21, AEGVAAPA; experiment: peptide ELISA, A405
T21 construct: member of m19; also called hBak 8-mer 49-56
T21 peptide: Biotin-SGSGAEGVAAPA

EQVAQDTE = target: T22, EQVAQDTE; experiment: peptide ELISA, A405
T22 construct: member of m19; also called hBak 8-mer 25-32
T22 peptide: Biotin-SGSGEQVAQDTE

[5] = target: T23, human Bak 8-mer peptide YVFYRHQQ (residues 38-45) (human); experiment: peptide ELISA, A405
T23 peptide: Biotin-SGSGYVFYRHQQ

GVAAPADP = target: T24, GVAAPADP; experiment: peptide ELISA, A405
T24 construct: member of m19; also called hBak 8-mer 51-58
T24 peptide: Biotin-SGSGGVAAPADP

[6] = target: T2, Bak loop peptide …; experiment: ITC at 25 °C, Ab 2.5 µM, peptide 50 µM, OneSites model
Description: as §1, §2

[7] = target: T2, Bak loop peptide …; experiment: ITC at 25 °C, Ab 5 µM, peptide 100 µM, OneSites model
Description: as §1, §2

[8] = target: T25, mouse Bak 15-mer peptide 81-95; experiment: peptide ELISA, A405
T25 construct: member of m18
T25 peptide: Biotin-SGSGDDINRRYDTEFQNLL
Description: (§3) Since most epitopes were linear, further mapping was performed using peptide arrays. Two arrays of overlapping 15-mer peptides (each offset by 10 residues) that collectively spanned the entire sequences of human and mouse Bak were designed. Biotinylated peptides were immobilized on streptavidin-coated plates and each antibody tested by ELISA.

[9] = target: T26, human Bak 15-mer peptide 31-45; experiment: peptide ELISA, A405
T26 construct: member of m17
T26 peptide: Biotin-SGSGTEEVFRSYVFYRHQQ
Description: as §3

[10] = target: T27, human Bak 15-mer peptide for residues 11-25 (human, UniProt Q16611 11-25); experiment: peptide ELISA, A405
T27 construct: range 11-25
T27 peptide: Biotin-SGSGRQECGEPALPSASEE
Description: as §3

[11] = target: T28, mouse Bak 15-mer peptide 41-55; experiment: peptide ELISA, A405
T28 construct: member of m18
T28 peptide: Biotin-SGSGHQQEQETQGAAAPAN
Description: as §3

[12] = target: T29, human Bak 15-mer peptide 21-35; experiment: peptide ELISA, A405
T29 construct: member of m17
T29 peptide: Biotin-SGSGSASEEQVAQDTEEVF
Description: as §3

[13] = target: T30, mouse Bak 15-mer peptide 71-85; experiment: peptide ELISA, A405
T30 construct: member of m18
T30 peptide: Biotin-SGSGQVGRQLALIGDDINR
Description: as §3

[14] = target: T31, human Bak 15-mer peptide 81-95; experiment: peptide ELISA, A405
T31 construct: member of m17
T31 peptide: Biotin-SGSGIGDDINRRYDSEFQT
Description: as §3

[15] = target: T32, mouse Bak 15-mer peptide 21-35; experiment: peptide ELISA, A405
T32 construct: member of m18
T32 peptide: Biotin-SGSGSEQQVAQDTEEVFRS
Description: as §3

[16] = target: T33, mouse Bak 15-mer peptide 31-45; experiment: peptide ELISA, A405
T33 construct: member of m18
T33 peptide: Biotin-SGSGEVFRSYVFYLHQQEQ
Description: as §3

[17] = target: T34, human Bak 15-mer peptide 41-55; experiment: peptide ELISA, A405
T34 construct: member of m17
T34 peptide: Biotin-SGSGYRHQQEQEAEGVAAP
Description: as §3

[18] = target: T35, human Bak 15-mer peptide 51-65; experiment: peptide ELISA, A405
T35 construct: member of m17
T35 peptide: Biotin-SGSGGVAAPADPEMVTLPL
Description: as §3

[19] = target: T36, human Bak 15-mer peptide 1-15; experiment: peptide ELISA, A405
T36 construct: member of m17
T36 peptide: Biotin-SGSGMASGQGPGPPRQECG
Description: as §3

Kd [1]: 0.466 nM
Kd [2]: 2.9 nM
binding result (human Bak G51C): no binding
Kd [3]: < 4.3 nM
Kd [4]: < 4 nM
binding result (FRSYVFYR): no binding
binding result (TEEVFRSY): no binding
binding result (EAEGVAAP): binds
binding result (EEVFRSYV): no binding
binding result (QVAQDTEE): no binding
binding result (EVFRSYVF): no binding
binding result (SYVFYRHQ): no binding
binding result (QDTEEVFR): no binding
binding result (RSYVFYRH): no binding
binding result (VFRSYVFY): no binding
binding result (AQDTEEVF): no binding
binding result (EGVAAPAD): binds
binding result (SEEQVAQD): no binding
binding result (EEQVAQDT): no binding
binding result (VAAPADPE): binds
binding result (VAQDTEEV): no binding
binding result (DTEEVFRS): no binding
binding result (AEGVAAPA): binds
binding result (EQVAQDTE): no binding
binding result [5]: no binding
binding result (GVAAPADP): binds
Ka [6]: 2.26e+08 M⁻¹
ΔH [6]: -29.3 kcal/mol
ΔS [6]: -60 cal/mol/deg
Ka [7]: 2.34e+08 M⁻¹
ΔH [7]: -23.1 kcal/mol
ΔS [7]: -39.2 cal/mol/deg
binding result [8]: no binding
binding result [9]: no binding
binding result [10]: no binding
binding result [11]: binds
binding result [12]: no binding
binding result [13]: no binding
binding result [14]: no binding
binding result [15]: no binding
binding result [16]: no binding
binding result [17]: binds
binding result [18]: binds
binding result [19]: no binding
B1: 26/05-7D10-17-13 antibody (antibody, V domains shown)
VH: EVELVESGGDLVQPGRSLKLSCAASGFTFSNLAMAWVRQTPTKGLEWVASISPAGITTYYRDSVKGRFTISRDNARNTQYLQMDSLRSEDTATYYCARHTGKSSFFDYWGQGVMVTVSS
VL: DVQMTQSPSYLAASPGESVSISCKATENINTYLAWYQAKPGKTTKLLLYSGSTLQSGTPSRFSGSGSGTDFTLTISSLEPEDFAVYYCQQHNEYPLTFGSGTKLEIK
notes: Rat IgG monoclonal antibody from hybridoma SW1 (ECACC 15041601), WEHI monoclonal antibody facility; also called 26/05-7D10-17-13 MAb; 26/05-7D 10-17-13 anti-Bak antibody
